The chains are these.
T1: VPAC1 receptor
T1 sequence (P32241 whole entry, species assumed, looked up): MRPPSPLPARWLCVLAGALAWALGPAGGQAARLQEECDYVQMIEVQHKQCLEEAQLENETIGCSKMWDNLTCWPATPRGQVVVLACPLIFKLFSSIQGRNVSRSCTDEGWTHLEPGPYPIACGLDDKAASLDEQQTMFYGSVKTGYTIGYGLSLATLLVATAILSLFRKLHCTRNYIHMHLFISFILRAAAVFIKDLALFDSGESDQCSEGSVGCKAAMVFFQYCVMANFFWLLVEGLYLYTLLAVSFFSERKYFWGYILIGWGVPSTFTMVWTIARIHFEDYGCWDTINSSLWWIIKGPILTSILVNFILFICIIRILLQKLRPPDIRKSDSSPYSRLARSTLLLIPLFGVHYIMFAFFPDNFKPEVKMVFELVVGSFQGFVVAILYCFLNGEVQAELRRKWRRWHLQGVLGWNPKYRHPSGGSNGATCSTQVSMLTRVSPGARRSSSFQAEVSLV

B1: P412 (P12+43 kD PEG) (peptide)
peptide: HSDAVFTDQYTRLRKQVAAKKYLQSIKQKRYC
modifications: branched 43 kD PEG attached to the C-terminal cysteine via maleimide (thioether) linkage
B2: P212 (P12+22 kD PEG) (peptide)
peptide: HSDAVFTDQYTRLRKQVAAKKYLQSIKQKRYC
modifications: linear 22 kD PEG attached to the C-terminal cysteine via maleimide (thioether) linkage

Ends that are not written are not given here.

For the assay, the target named is T1, VPAC1 receptor. The assay is described as follows: cell-based or functional assay.
Regarding B1, the “EC50 (nM), cAMP assay, VPAC1 agonist activity” value (from here on “EC50 (nM), cAMP assay”) was > 1000 nM.

HSDAVFTDQYTRLRKQVAAKKYLQSIKQKRYC (ends and bridges not checked) [P12]: the “EC50 (nM), cAMP assay” value was > 1000 nM.

For B2, the “EC50 (nM), cAMP assay” value was > 1000 nM.

For the molecule HSDAVFTDQYTRLRKQVAAKKYLQSIKQKRY (ends and bridges not checked) [P5], the “EC50 (nM), cAMP assay” value stood at 232 nM.

(Values after patent publication US20080261863A1 (Bayer, published 2008).)
